Assay results reported in patent US20210388087A1 (Chugai, published 2021).

T1: Human CD3eg linker (human)
T1 construct: single-chain construct; also called recombinant human CD3
T1 chain: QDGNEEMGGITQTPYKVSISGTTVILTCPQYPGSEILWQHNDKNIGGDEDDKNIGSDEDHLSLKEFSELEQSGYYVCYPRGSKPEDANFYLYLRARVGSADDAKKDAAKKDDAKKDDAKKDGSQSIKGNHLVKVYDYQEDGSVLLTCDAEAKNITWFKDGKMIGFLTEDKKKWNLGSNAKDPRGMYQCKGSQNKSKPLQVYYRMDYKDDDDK

B1: dBBDu183H S99R/dBBDu072L (antibody, name in Kabat numbering, V domains shown)
VH: QVQLVESGGGLVQPGRSLRLSCAASGFTFSNAWMHWVRQAPGKGLEWVAQIKDKGNAYAAYYAPSVKGRFTISRDDSKNSIYLQMNSLKTEDTAVYYCHYVHYARASTVLPAFGVDAWGQGTTVTVSS
VL: DIVMTQSPLSLPVTPGEPASISCQASQELVHMNRNTYLHWYQQKPGQAPRLLIYKVSNRFPGVPDRFSGSGSGTDFTLKISRVEAEDVGVYYCAQGTSVPFTFGQGTKLEIK
B2: dBBDu183H S99T/dBBDu072L (antibody, name in Kabat numbering, V domains shown)
VH: QVQLVESGGGLVQPGRSLRLSCAASGFTFSNAWMHWVRQAPGKGLEWVAQIKDKGNAYAAYYAPSVKGRFTISRDDSKNSIYLQMNSLKTEDTAVYYCHYVHYATASTVLPAFGVDAWGQGTTVTVSS
VL: DIVMTQSPLSLPVTPGEPASISCQASQELVHMNRNTYLHWYQQKPGQAPRLLIYKVSNRFPGVPDRFSGSGSGTDFTLKISRVEAEDVGVYYCAQGTSVPFTFGQGTKLEIK
B3: dBBDu183H S99V/dBBDu072L (antibody, name in Kabat numbering, V domains shown)
VH: QVQLVESGGGLVQPGRSLRLSCAASGFTFSNAWMHWVRQAPGKGLEWVAQIKDKGNAYAAYYAPSVKGRFTISRDDSKNSIYLQMNSLKTEDTAVYYCHYVHYAVASTVLPAFGVDAWGQGTTVTVSS
VL: DIVMTQSPLSLPVTPGEPASISCQASQELVHMNRNTYLHWYQQKPGQAPRLLIYKVSNRFPGVPDRFSGSGSGTDFTLKISRVEAEDVGVYYCAQGTSVPFTFGQGTKLEIK
B4: dBBDu183H S100aH/dBBDu072L (antibody, name in Kabat numbering, V domains shown)
VH: QVQLVESGGGLVQPGRSLRLSCAASGFTFSNAWMHWVRQAPGKGLEWVAQIKDKGNAYAAYYAPSVKGRFTISRDDSKNSIYLQMNSLKTEDTAVYYCHYVHYASAHTVLPAFGVDAWGQGTTVTVSS
VL: DIVMTQSPLSLPVTPGEPASISCQASQELVHMNRNTYLHWYQQKPGQAPRLLIYKVSNRFPGVPDRFSGSGSGTDFTLKISRVEAEDVGVYYCAQGTSVPFTFGQGTKLEIK
B5: dBBDu183H S100aW/dBBDu072L (antibody, name in Kabat numbering, V domains shown)
VH: QVQLVESGGGLVQPGRSLRLSCAASGFTFSNAWMHWVRQAPGKGLEWVAQIKDKGNAYAAYYAPSVKGRFTISRDDSKNSIYLQMNSLKTEDTAVYYCHYVHYASAWTVLPAFGVDAWGQGTTVTVSS
VL: DIVMTQSPLSLPVTPGEPASISCQASQELVHMNRNTYLHWYQQKPGQAPRLLIYKVSNRFPGVPDRFSGSGSGTDFTLKISRVEAEDVGVYYCAQGTSVPFTFGQGTKLEIK
B6: dBBDu183H S100aR/dBBDu072L (antibody, name in Kabat numbering, V domains shown)
VH: QVQLVESGGGLVQPGRSLRLSCAASGFTFSNAWMHWVRQAPGKGLEWVAQIKDKGNAYAAYYAPSVKGRFTISRDDSKNSIYLQMNSLKTEDTAVYYCHYVHYASARTVLPAFGVDAWGQGTTVTVSS
VL: DIVMTQSPLSLPVTPGEPASISCQASQELVHMNRNTYLHWYQQKPGQAPRLLIYKVSNRFPGVPDRFSGSGSGTDFTLKISRVEAEDVGVYYCAQGTSVPFTFGQGTKLEIK
B7: dBBDu183H S100aN/dBBDu072L (antibody, name in Kabat numbering, V domains shown)
VH: QVQLVESGGGLVQPGRSLRLSCAASGFTFSNAWMHWVRQAPGKGLEWVAQIKDKGNAYAAYYAPSVKGRFTISRDDSKNSIYLQMNSLKTEDTAVYYCHYVHYASANTVLPAFGVDAWGQGTTVTVSS
VL: DIVMTQSPLSLPVTPGEPASISCQASQELVHMNRNTYLHWYQQKPGQAPRLLIYKVSNRFPGVPDRFSGSGSGTDFTLKISRVEAEDVGVYYCAQGTSVPFTFGQGTKLEIK
B8: dBBDu183H S99Y/dBBDu072L (antibody, name in Kabat numbering, V domains shown)
VH: QVQLVESGGGLVQPGRSLRLSCAASGFTFSNAWMHWVRQAPGKGLEWVAQIKDKGNAYAAYYAPSVKGRFTISRDDSKNSIYLQMNSLKTEDTAVYYCHYVHYAYASTVLPAFGVDAWGQGTTVTVSS
VL: DIVMTQSPLSLPVTPGEPASISCQASQELVHMNRNTYLHWYQQKPGQAPRLLIYKVSNRFPGVPDRFSGSGSGTDFTLKISRVEAEDVGVYYCAQGTSVPFTFGQGTKLEIK
B9: dBBDu183H T100bE/dBBDu072L (antibody, name in Kabat numbering, V domains shown)
VH: QVQLVESGGGLVQPGRSLRLSCAASGFTFSNAWMHWVRQAPGKGLEWVAQIKDKGNAYAAYYAPSVKGRFTISRDDSKNSIYLQMNSLKTEDTAVYYCHYVHYASASEVLPAFGVDAWGQGTTVTVSS
VL: DIVMTQSPLSLPVTPGEPASISCQASQELVHMNRNTYLHWYQQKPGQAPRLLIYKVSNRFPGVPDRFSGSGSGTDFTLKISRVEAEDVGVYYCAQGTSVPFTFGQGTKLEIK
B10: dBBDu183H S100aQ/dBBDu072L (antibody, name in Kabat numbering, V domains shown)
VH: QVQLVESGGGLVQPGRSLRLSCAASGFTFSNAWMHWVRQAPGKGLEWVAQIKDKGNAYAAYYAPSVKGRFTISRDDSKNSIYLQMNSLKTEDTAVYYCHYVHYASAQTVLPAFGVDAWGQGTTVTVSS
VL: DIVMTQSPLSLPVTPGEPASISCQASQELVHMNRNTYLHWYQQKPGQAPRLLIYKVSNRFPGVPDRFSGSGSGTDFTLKISRVEAEDVGVYYCAQGTSVPFTFGQGTKLEIK
B11: dBBDu183H S100aD/dBBDu072L (antibody, name in Kabat numbering, V domains shown)
VH: QVQLVESGGGLVQPGRSLRLSCAASGFTFSNAWMHWVRQAPGKGLEWVAQIKDKGNAYAAYYAPSVKGRFTISRDDSKNSIYLQMNSLKTEDTAVYYCHYVHYASADTVLPAFGVDAWGQGTTVTVSS
VL: DIVMTQSPLSLPVTPGEPASISCQASQELVHMNRNTYLHWYQQKPGQAPRLLIYKVSNRFPGVPDRFSGSGSGTDFTLKISRVEAEDVGVYYCAQGTSVPFTFGQGTKLEIK
B12: dBBDu183H S100aF/dBBDu072L (antibody, name in Kabat numbering, V domains shown)
VH: QVQLVESGGGLVQPGRSLRLSCAASGFTFSNAWMHWVRQAPGKGLEWVAQIKDKGNAYAAYYAPSVKGRFTISRDDSKNSIYLQMNSLKTEDTAVYYCHYVHYASAFTVLPAFGVDAWGQGTTVTVSS
VL: DIVMTQSPLSLPVTPGEPASISCQASQELVHMNRNTYLHWYQQKPGQAPRLLIYKVSNRFPGVPDRFSGSGSGTDFTLKISRVEAEDVGVYYCAQGTSVPFTFGQGTKLEIK
B13: dBBDu183H S100aV/dBBDu072L (antibody, name in Kabat numbering, V domains shown)
VH: QVQLVESGGGLVQPGRSLRLSCAASGFTFSNAWMHWVRQAPGKGLEWVAQIKDKGNAYAAYYAPSVKGRFTISRDDSKNSIYLQMNSLKTEDTAVYYCHYVHYASAVTVLPAFGVDAWGQGTTVTVSS
VL: DIVMTQSPLSLPVTPGEPASISCQASQELVHMNRNTYLHWYQQKPGQAPRLLIYKVSNRFPGVPDRFSGSGSGTDFTLKISRVEAEDVGVYYCAQGTSVPFTFGQGTKLEIK
B14: dBBDu183H S100aE/dBBDu072L (antibody, name in Kabat numbering, V domains shown)
VH: QVQLVESGGGLVQPGRSLRLSCAASGFTFSNAWMHWVRQAPGKGLEWVAQIKDKGNAYAAYYAPSVKGRFTISRDDSKNSIYLQMNSLKTEDTAVYYCHYVHYASAETVLPAFGVDAWGQGTTVTVSS
VL: DIVMTQSPLSLPVTPGEPASISCQASQELVHMNRNTYLHWYQQKPGQAPRLLIYKVSNRFPGVPDRFSGSGSGTDFTLKISRVEAEDVGVYYCAQGTSVPFTFGQGTKLEIK
B15: dBBDu183H T100bD/dBBDu072L (antibody, name in Kabat numbering, V domains shown)
VH: QVQLVESGGGLVQPGRSLRLSCAASGFTFSNAWMHWVRQAPGKGLEWVAQIKDKGNAYAAYYAPSVKGRFTISRDDSKNSIYLQMNSLKTEDTAVYYCHYVHYASASDVLPAFGVDAWGQGTTVTVSS
VL: DIVMTQSPLSLPVTPGEPASISCQASQELVHMNRNTYLHWYQQKPGQAPRLLIYKVSNRFPGVPDRFSGSGSGTDFTLKISRVEAEDVGVYYCAQGTSVPFTFGQGTKLEIK
B16: dBBDu183H S100aT/dBBDu072L (antibody, name in Kabat numbering, V domains shown)
VH: QVQLVESGGGLVQPGRSLRLSCAASGFTFSNAWMHWVRQAPGKGLEWVAQIKDKGNAYAAYYAPSVKGRFTISRDDSKNSIYLQMNSLKTEDTAVYYCHYVHYASATTVLPAFGVDAWGQGTTVTVSS
VL: DIVMTQSPLSLPVTPGEPASISCQASQELVHMNRNTYLHWYQQKPGQAPRLLIYKVSNRFPGVPDRFSGSGSGTDFTLKISRVEAEDVGVYYCAQGTSVPFTFGQGTKLEIK
B17: dBBDu183H S100aK/dBBDu072L (antibody, name in Kabat numbering, V domains shown)
VH: QVQLVESGGGLVQPGRSLRLSCAASGFTFSNAWMHWVRQAPGKGLEWVAQIKDKGNAYAAYYAPSVKGRFTISRDDSKNSIYLQMNSLKTEDTAVYYCHYVHYASAKTVLPAFGVDAWGQGTTVTVSS
VL: DIVMTQSPLSLPVTPGEPASISCQASQELVHMNRNTYLHWYQQKPGQAPRLLIYKVSNRFPGVPDRFSGSGSGTDFTLKISRVEAEDVGVYYCAQGTSVPFTFGQGTKLEIK
B18: dBBDu183H S100aG/dBBDu072L (antibody, name in Kabat numbering, V domains shown)
VH: QVQLVESGGGLVQPGRSLRLSCAASGFTFSNAWMHWVRQAPGKGLEWVAQIKDKGNAYAAYYAPSVKGRFTISRDDSKNSIYLQMNSLKTEDTAVYYCHYVHYASAGTVLPAFGVDAWGQGTTVTVSS
VL: DIVMTQSPLSLPVTPGEPASISCQASQELVHMNRNTYLHWYQQKPGQAPRLLIYKVSNRFPGVPDRFSGSGSGTDFTLKISRVEAEDVGVYYCAQGTSVPFTFGQGTKLEIK
B19: dBBDu183H S99W/dBBDu072L (antibody, name in Kabat numbering, V domains shown)
VH: QVQLVESGGGLVQPGRSLRLSCAASGFTFSNAWMHWVRQAPGKGLEWVAQIKDKGNAYAAYYAPSVKGRFTISRDDSKNSIYLQMNSLKTEDTAVYYCHYVHYAWASTVLPAFGVDAWGQGTTVTVSS
VL: DIVMTQSPLSLPVTPGEPASISCQASQELVHMNRNTYLHWYQQKPGQAPRLLIYKVSNRFPGVPDRFSGSGSGTDFTLKISRVEAEDVGVYYCAQGTSVPFTFGQGTKLEIK
B20: dBBDu183H S100aY/dBBDu072L (antibody, name in Kabat numbering, V domains shown)
VH: QVQLVESGGGLVQPGRSLRLSCAASGFTFSNAWMHWVRQAPGKGLEWVAQIKDKGNAYAAYYAPSVKGRFTISRDDSKNSIYLQMNSLKTEDTAVYYCHYVHYASAYTVLPAFGVDAWGQGTTVTVSS
VL: DIVMTQSPLSLPVTPGEPASISCQASQELVHMNRNTYLHWYQQKPGQAPRLLIYKVSNRFPGVPDRFSGSGSGTDFTLKISRVEAEDVGVYYCAQGTSVPFTFGQGTKLEIK

Target: T1, Human CD3eg linker
Experiment: SPR, vs unmutated H183/L072
With B1 the “fold change of affinity” value was 2 fold. For B2, the “fold change of affinity” value was 0.9 fold. For B3, the “fold change of affinity” value was 0.8 fold. For B4, the “fold change of affinity” value was 1.1 fold. For B5, the “fold change of affinity” value was 1.6 fold. B6 was tested, and the “fold change of affinity” value was 0.6 fold. In the case of B7, the “fold change of affinity” value is reported as 0.8 fold. With B8 the “fold change of affinity” value was 0.8 fold. For B9, the “fold change of affinity” value was 0.6 fold. For B10, the “fold change of affinity” value was 0.5 fold. For B11, the “fold change of affinity” value was 0.6 fold. In the case of B12, the “fold change of affinity” value is reported as 1.6 fold. For B13, the “fold change of affinity” value was 1 fold. In the case of B14, the “fold change of affinity” value is reported as 0.6 fold. B15 was tested, and the “fold change of affinity” value was 0.6 fold. With B16 the “fold change of affinity” value was 0.9 fold. For B17, the “fold change of affinity” value was 0.9 fold. For B18, the “fold change of affinity” value was 1.2 fold. For B19, the “fold change of affinity” value was 0.9 fold. B20 was tested, and the “fold change of affinity” value was 1.2 fold.
